# Reference: the DeepSol protein solubility set
# Assay: soluble on expression in E. coli; label from the status in PepcDB or PDB records
row,Sequence,soluble on expression in E. coli
1,MSQMSPGQARVVDPILSTHARGYRQSTLIGKKLFPVAPVAQYGGKILTFGKEAFRLYNTKRAPGANTKRIDFGYEGDPYSIVPSALEAKVPRELMRDASQVPGIDLGARSVNTVLRIMALAHEHECAQIALDPAKYNADHKVKLVGSARWTSPDSDPTKDVETAKEAIADSIGMEPNRLMLSRKALSACKYHPKLIERVKYTRAESITIDMLKALWEVEEIVVGTARVATGANDSFGDVWGPDVWLGYVSDNPDPSVEEPSFGYTYQIEGHPLVEVPYWDNNAKSWIYGVSDDNTPALSGMLAGYLIEDAGLPAALEHHHHHH,soluble
2,MREVISIHVGQAGVQIGNACWELYCLEHGILPDGTSMEPDGNSGSLGTFFSDTGYGRHVPRSIFVDLEPTVVDEIRTGAYKKLFHPEQMLTGKEDAANNYARGHYTVGKEIIDTTLDRIRRLANNCEGLQGFFVFHSFGGGTGSGFTSMLMERLSAEYGKKSKLEFSIYPAPQISTSVVEPYNSILTTHTTLEHSDCSFMVDNEAIYDICRRNLRVSRPTYNNLNRIISQVVSSITASLRFDGALNVDLNEFQTNLVPYPRIHFPLVAYNPLISSAHHEFLSVDEITKSCFEASNQMVKCDPKHGKYMAVCLLYRGDVVPKDVSAAIKSIKTQRSVQFVDWCPTGFKVGLNYQPPTVIPGGDMAKVPRAVCMLSNTTAIAEAWQRLDYKFDLMYAKRAFVHWYVGEGMEEGEFSEAREDLAALEKDYEEVGADSDANDNGDDEY,not soluble
3,MESISRSPRIFLLSLGRWNSGISVCWYSPRHPRAIISDPAPRIAREHATVLFGDSHASEENNAARRRNFHNKKTSRGGNDDKQSRGNNAEKRKRRDPMTSQGPDSDEDELQEMTNKDRLKRAKRKGIDPMDPGAHGGAPVEKWSDGLRVDHVTGADVTAGGPLFQQRPYPAPGAILRKHKPQDEEDDQQFNFLKSF,not soluble
4,MGRGVYTLALRGLAPLIWLWMWRRARRAGGQWELFAPARFGRAGARAPAPLAAPVWVHAVSLGETRAAQPLVQALLERGLPVLLTHTTATGRAEGERLFGAAIGRGQLQQAWLPYDFPGATRRFLARHAPRCGLLIEREVWPNLLAAARAQGVPMALVSARFSASSLRQAGWLGQALREALAGLGRVLAQTDEDGARLCQAGANAYTVTGSLKFDVALPEAQLRVGHAWAGATGRPVIALASTREGEDAMFIEAIGALQAHRAATPRPLILLIPRHPQRFDEAAAQLQAAGLAYARRSAGSGEPGPHIDVLLGDTLGEMPFYYAAADVAIVGGSFARLGGQNLIEACAAGTPVIVGPHTFNFKDAARDAIAAGAALRAPDARTALDWALQLLAEPARRQAMSEAARAWTAAHAGATRRTLDALEDWLAPRLEHHHHHH,soluble
5,MAREKVSLTEFNLFSEGILEQGSSVRALEWAPIVPFADRAGFEQESRKALKKDFAIIELLANGNTIPAQSRTQYAPLYYIYPQYNNQEALGLDVYSNPTHILSMQVVVNSKAVIASAPITLVQDELAKPGMLFSKAVFLPPEVNELASNEAQQKLSIIKEGKLLGFVVAVAQFDSFFEQLAQQKEQEVSFFIQDVSGSQPLSLFGQAFPTVNRHVDTITIEVFSRLWQIDIALEHHHHHH,not soluble
6,MAHHHHHHMVGLVKPLFPNTLLTEAQDERRLLTLVLDLDETLVSNRDSRQSAAVLRPYCLHVLNALRHMKELEIVLWTASTKETALPVVDQLHKTGIIFDDIIFRNSIWFTQPIHTKDLRLLGRDMNRVLIVDNSVGCCKLHPRNALLVEDFHGVKRREDAALVNVYYVVDALLRMMRERTMPVSEGLGCLMAEGQLCHPVSYDLPAFFKCIPLTEVPELKRPPVGRFARANTAPPNTSIMQHWVY,soluble
7,MGSDKIHHHHHHMNVRQLEAFQAVMSAGSLTAAAGLLSVSQPAVSQLIAQLEGNCGFSLFDRAGTKMRPTREAEVLHAEVQRMFIGVGRVANVAKALRDQTWGALSIASFPVLTRRMLPNIVTSFCKTRPDVKFSVESMRSRSLVDAVATQQVDLGFSILPGDRPEVDSTHVCTLRGLCILPKGHRLSKRRLIRAKDLDGEAFVALGPQDHSRFQIDKIFEEADVQRRIQVEVGQSETACSFVANGVGVAVVDPISVWNNAGADFVVCAFEPKMEFEIWLIRPKTARPFALIDTFSDYACAELMRLKEEEIDIRQPRG,not soluble
8,FDASNFKDFSSIASASSSWQNQSGSTMIIQVDSFGNVSGQYVNRAQGTGCQNSPYPLTGRVNGTFIAFSVGWNNSTENCNSATGWTGYAQVNGNNTEIVTSWNLAYEGGSGPAIEQGQDTFQYVPTTENKSLLKD,soluble
9,MSLAIPFKRINLNLILHLDALLSERSVSAAAEKVFVSQPAMSSSLKQLRELFKDPLLIPGKGEYFLSPKAKELQPQLEQVMFFIRNILQPNERFDPFQTKRSFKIALPDYVELILLPSLMAALEKLPHIVIETTIQSMADDPHLFIDENVDLAIGAINENSLSAQLKVEKLYEEEIICFASKNNPLINRPLSLEDYISNKHIAFSFNQERYSHSAEYLYKRKLVRNDMLFVKNILPAIFAVANSDAVISTAPSFLINMFARQFNLGMQPLPFNLEPTPIYLVTHSKSQYDEGVSWLAKLVSSSIKSPSEGHHHHHH,soluble
10,MTTKLVRPSDQATSNQVPVPGALVPHLDQCALLLDIDGTLLDLAPTPREVWVPPELEQTLTNLLVRTSGALALVSGRSINDIDLIFAPMRLPAVGGHGAEMRLSGEGEAIATHAPPLDSELKSRLAAIARISPGILLEDKGYSLALHYRLAPHTEKAIYEAVAAIRAENPEAPLEVLPGKSVCEIKHSGFTKATGVLELMTRAPFKGRRPIFIGDDVTDETVFAIMPELRGLAFSVGRYSELTSGHFDEPRDVRNWLARLLEPANLEHHHHHH,soluble
11,MGSDKIHHHHHHMMSAVADIQECRDFLAAHPQVKFVEVFFTSMTGVPRGKRLRVHELEAIYEYGRFLPGSVLVVDTNGADCEDTGLVWEDGDADRRARPVPGTLTLAPWLGPDVAQVMLSLYELDGTPNDLDPRHVLQRVLDRYAADGLTPVAACELEYYLVDLQRGPNGELLPAKSLQTGLRPTGIQVYGLPELEAHAPFLRELWDVADTLGVPLEGAISEFAPAQVELTLKHKPDALRAADDAVLYKRAAKGVALRHGMEATFMAKPWSDRAGNGFHVHLSVNDAAGNNLCASEDIEGSDLLKHAIGGMKVLLGEGMAILAPNANSYRRFKANSYAPVAPTWGVNNRTVSLRVPAGPPKTRHVEHRVAGADGNPYLVLAVLLASAHHGITNKIDPGPAVIGDGYAAAAKENIRLPNNWFAAVDLFEQSSVLRDYLGDRFVDMFVSVKRTEQARFFEVVTELDFDWYLRNA,not soluble
12,MINAKVHVAVPTAFYADESLNISATLAHAQYLLDHQIESVMLCGSTGEQHSLDLDEKIALARAVDRAEWPQGAEIIFGVSAIRQSHAVRLAQVVAQCERIDAILVGFPPYIRPTQDQARRFVTAITQTAGKPAIIYNNPARTGFDASASTLAQLCMLPDVIGVKDPGGAPKLAEVSREIAPFRARYYAGGELDLHAKVAHGYTYLSSIVGNIAPEETVAWFNALRHGEEYESSSRLQELIDQLFAHHPIQFLKEKISTQEGINMGSCRLPLGPIAD,not soluble
13,MSLVMVVDGSKLVRKLITDVLRRELPEVDVIGCVGIAEARQTLEAGTVDLVTTSLFLPDGDGLALARSVREEAGQAYVPVIVVSGDTQQHLVERRFTEYVTDYFDKALGHEALAAFIRGYVQPEPVSSGTVLYVEDSCVVAEATTRMLERQGLRVVHVLTAEDAFALLTAESLGRTEYRINLVLTDVTLKGELSGCDVVQRIRIDFSYGKRRLPVLVMTGDTNSQNQSELLRAGANDLVQKPIEERLLVTKVLFQLRLARLKDDLATIEGHHHHHH,not soluble
14,MRANLGVPSTIAQSRWAESATSFPTATVAAAGGKDIEIERDVAHNQPGGIFPNVIFLESLDFSACFVDAHQVFVSDGSVMFRRWDRQKKTGRKK,not soluble
15,DEYARDTKVEWREWGTAPFEDAAESGKPVLLALTVPWSAECRAMDRGTYGEPRIAANINDGFVPVRVDADRNPRVRERYTMGGFPSTVFLTPEGEVITGATFLGPDGFRGILDSVRESWDAQ,not soluble
16,MGSDKIHHHHHHMSTIEERIKEIEDEIKRTQYNKATEHHIGLLKAKIARLQMEARAHKGGGHYGFSIPKSGDATVALVGFPNVGKSSLLNVLTNSESEVGSYAFTTLKAIPGVMEYKGAEIQILDLPGIIENASYGAGRGREILSTVRSADLIVIVTDVETGGLDKIVKELYNSGIVVNRRRKNIEIKKTTSGGIRVHKPKNVDIDSEYIRQLMKEFKLVNADVYIREQVNEDDIIEAVQKNYVYIPSIVAVNKIDMNGAFDTSPLTRFGEVFKVSAKNRIGIDELREGIYRSLKLLRVYLRNKAGVVDFDKPLILTDGSTVRDVCRKINRSLIDSFRYAIISGKNRPIGEQRVGIDYPLLDEDIVTIISRN,not soluble
17,MGHHHHHHSHNFHYGAGHPMKPHRLALTHSLVLHYGLYKKMIVFKPYQASQHDMCRFHSEDYIDFLQRVSPTNMQGFTKSLNAFNVGDDCPVFPGLFEFCSRYTGASLQGATQLNNKICDIAINWAGGLHHAKKFEASGFCYVNDIVIGILELLKYHPRVLYIDIDIHHGDGVQEAFYLTDRVMTVSFHKYGNYFFPGTGDMYEVGAESGRYYCLNVPLRDGIDDQSYKHLFQPVINQVVDFYQPTCIVLQCGADSLGCDRLGCFNLSIRGHGECVEYVKSFNIPLLVLGGGGYTVRNVARCWTYETSLLVEEAISEELPYSEYFEYFAPDFTLHPDVSTRIENQNSRQYLDQIRQTIFENLKMLNHAPSVQIHDVPADLLTYDRTD,not soluble
18,MEKDLQLRVNEKLDVENILKDLDKYTPKRRGWTWRQPAENLQMGPFIYKDASTPLENSVALPSAKYFGDIDPQPLPVITTEIASGRFEDDIRRMRMAAWHGADHIMVIRTAGQSHYDGLIEGTPQGIGGVPITRKQVRAQRKALDLIEEEVGRPINYHSYVSGVAGPDIAVMFAEEGVNGAHQDPQYNVLYRNINMIRSFIDACESKTIMAWADMAQIDGAHNANATAREAWKVMPELMVQHALNSIFSLKVGMKKSNICLSTVPPTAPPAPSMYLDLPYAVALREMFEGYRMRAQMNTKYMEASTREATVTHVLNLLISKLTRADIQSTITPDEGRNVPWHIYNIEACDTAKQALIGMDGLMDMVQLKREGVLGDTVRELKERAVLFMEEIIEAGGYFNAVEQGFFVDSGYYPERNGDGIARQINGGIGAGTVFERDEDYMAPVTAHFGYNNVKQYDEALVSEPSKLIDGCTLEVPEKIVYIDELDENDNVNVRMEETKEFRHSSMIKPEVEWQADGTVLLTMFLPTSKRVAEFAAIEFAKKMNLEEVEVINREVMQEAEGTRIELKGRVPFSIDINSLVIPPEPEILSEDEIREDIEKTPLKIVAATVGEDEHSVGLREVIDIKHGGIEKYGVEVHYLGTSVPVEKLVDAAIELKADAILASTIISHDDIHYKNMKRIHELAVEKGIRDKIMIGCGGTQVTPEVAVKQGVDAGFGRGSKGIHVATFLVKKRREMREGKSEDPNSSSVDKLAAALEHHHHHH,soluble
19,GGSHMKSYEIALIGNPNVGKSTIFNALTGENVYIGNWPGVTVEKKEGEFEYNGEKFKVVDLPGVYSLTANSIDEIIARDYIINEKPDLVVNIVDATALERNLYLTLQLMEMGANLLLALNKMDLAKSLGIEIDVDKLEKILGVKVVPLSAAKKMGIEELKKAISIAVKDKKTAEIKYPNFEPYIKKIT,soluble
